Patent US20240067738A1 (ELANCO US, published 2024)

T1: Canine IL4R-ECD_C-His6 (processed) (canine, biotinylated through amine chemistry; sites not stated)
T1 construct: Whole construct (ECD, linker, His6) is one entry; Captured biotinylated on streptavidin tips or wells
T1 chain: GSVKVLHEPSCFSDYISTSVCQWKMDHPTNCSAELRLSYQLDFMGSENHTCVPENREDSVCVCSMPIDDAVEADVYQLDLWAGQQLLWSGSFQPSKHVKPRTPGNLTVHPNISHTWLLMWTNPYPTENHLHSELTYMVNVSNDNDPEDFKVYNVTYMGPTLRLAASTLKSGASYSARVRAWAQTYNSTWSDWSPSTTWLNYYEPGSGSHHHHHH

T2: canine IL4R (Examples 16, 18 and 19; construct not stated) (canine, biotinylated; sites not stated)
T2 construct: also called Biotinylated canine IL4R; canine IL4R extracellular domains
T2 chain: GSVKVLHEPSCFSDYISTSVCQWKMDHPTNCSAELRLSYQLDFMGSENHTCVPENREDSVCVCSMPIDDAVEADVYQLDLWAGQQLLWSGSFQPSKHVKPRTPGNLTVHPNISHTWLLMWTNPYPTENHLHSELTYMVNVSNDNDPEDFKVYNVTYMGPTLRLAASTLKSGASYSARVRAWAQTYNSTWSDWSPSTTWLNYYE


Assays:
[1] = molecular target: T3, Canine IL4R-ECD_C-HuFc_His6 (processed) (canine); experiment: BLI (Octet), IL4R-ECD_C-HuFc_His6 on anti-human Fc tips
T3 construct: Whole construct (ECD, linker, human Fc, His6) is one entry
Description: An alternative binding assay was performed also using an Octet Biosensor. Canine IL4R-ECD_C-HuFc_His6 (SEQ ID NO: 109) was captured on anti-human Fc-bound sensor tips. The association of either Clone B or I antibody and canine IL4R-ECD_C-HuFc_His6 was monitored for 600 seconds. Dissociation was monitored for 600 seconds. The buffer for dilutions and all binding steps was 20 mM phosphate, 150 mM NaCl, pH 7.2. […] In addition, amine conjugation may affect the affinity of canine IL4R-ECD_C-His6 to interact with Clone B and I antibodies.

[2] = molecular target: T1, Canine IL4R-ECD_C-His6 (processed); experiment: BLI (Octet), biotinylated IL4R-ECD_C-His6 on streptavidin tips, 1:1 fit
Description: The binding analysis was performed using an Octet Biosensor as follows. Briefly, canine IL4R-ECD_C-His6 (SEQ ID NO: 107) was biotinylated through amine chemistry. The free unreacted biotin was removed by extensive dialysis. Biotinylated canine IL4R-ECD_C-His6 was captured on streptavidin sensor tips. The association of either Clone B or I antibody and canine IL4R-ECD_C-His6 (25 μg/mL) was monitored for 600 seconds. Dissociation was monitored for 600 seconds. A buffer only blank curve was subtracted to correct for any drift. The data were fit to a 1:1 binding model using ForteBio™ data analysis software to determine the kₒₙ, koff, and the Kd. The buffer for dilutions and all binding steps was 20 mM phosphate, 150 mM NaCl, pH 7.2.

[3] = molecular target: Human IL4R-ECD_C-HuFc_His6 (processed) (human); experiment: Western blot
Chain of Human IL4R-ECD_C-HuFc_His6 (processed) (human) (chain, as listed by the source limits assumed): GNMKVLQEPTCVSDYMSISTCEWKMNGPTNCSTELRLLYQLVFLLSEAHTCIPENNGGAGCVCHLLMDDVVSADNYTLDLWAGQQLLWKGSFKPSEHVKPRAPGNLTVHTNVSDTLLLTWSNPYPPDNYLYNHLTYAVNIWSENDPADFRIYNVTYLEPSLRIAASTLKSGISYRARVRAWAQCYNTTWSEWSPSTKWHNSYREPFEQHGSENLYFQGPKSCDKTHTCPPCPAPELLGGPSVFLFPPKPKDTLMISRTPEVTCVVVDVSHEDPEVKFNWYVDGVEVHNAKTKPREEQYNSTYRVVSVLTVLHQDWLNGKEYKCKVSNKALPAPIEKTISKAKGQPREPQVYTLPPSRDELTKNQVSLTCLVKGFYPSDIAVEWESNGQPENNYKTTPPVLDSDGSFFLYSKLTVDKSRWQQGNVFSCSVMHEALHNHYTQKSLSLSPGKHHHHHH

[4] = molecular target: T3, Canine IL4R-ECD_C-HuFc_His6 (processed); experiment: Western blot
[5] = molecular target: T2, canine IL4R (Examples 16, 18 and 19; …); experiment: BLI (ForteBio OctetRed), biotinylated canine IL4R on streptavidin tip
[6] = molecular target: T2, canine IL4R (Examples 16, 18 and 19; …); experiment: BLI (ForteBio OctetRed)
[7] = molecular target: T2, canine IL4R (Examples 16, 18 and 19; …); experiment: method not stated

Row | Binder | Kd [5] | Kd [6] | Kd [7] | also measured
1 | Clone B mouse monoclonal antibody (antibody, mouse IgG1, kappa, V domains shown, also called Clone B antibody; anti-IL4R-mAb Clone B) VH: EVKLEESGPELVKPGASVKMSCKASGYTFTSYVMHWVKQKPGQGLEWIGYINPKNDGTFYNGKFKGKATLTSDKSSSTAYMELSSLTSEDSAVYYCAAFNYGIAYWGQGTLVTVSS VL: IVLTQTPSSLSASLGERVSLTCRASQEISGYLSWLQQKPDGTIKRLIYAASTLDSGVPKRFSGSRSGSDFSLTISSLESEDFADYYCVQYASYPWTFGGGARLEIKR |  |  |  | Kd [1]: ~0.1 nM; Kd [2]: 2.03 nM
2 | M3 mouse monoclonal antibody (antibody, V domains shown, Mouse antibody purified from hybridoma culture; also called Clone M3) VH: QVQLKESGPGLVAPSQSLSITCTVSGFSLSRYSVHWVRQPPGKGLEWLGMIWGGGSTDYNSVFKSRLSISKDNSKSQVFLKMNSLQTDDTAMYYCARTYRGYALDYWGQGTSVTVSS VL: DIQMTQTTSSLSASLGDRVTISCRASQDISNYLNWYQQKPDGTVKLLIYYTSRLQSGVPSRFSGSGSGTDYCLTISNLEQEDIATYFCQQANTLPLTFGSGTKLELK | < 10 nM |  |  | binding result [3]: no binding; binding result [4]: binds
3 | M5 mouse monoclonal antibody (antibody, V domains shown, Mouse antibody purified from hybridoma culture; also called Clone M5) VH: QVQLKESGPGLVAPSQSLSITCTVSGFSLSRYSVHWVRQPPGKGLEWLGMIWGGGSTDYNSVFKSRLSISKDNSKSQVFLKMNSLQTDDTAMYYCARTYRGYALDYWGQGTSVTVSS VL: DIQMTQTTSSLSASLGDRVTISCRASQDISNYLNWYQQKPDGTVKLLIYYTSRLQSGVPSRFSGSGSGTDYCLTISNLEQEDIATYFCQQANTLPLTFGSGTKLELK | < 10 nM |  |  | 
4 | M8 mouse monoclonal antibody (antibody, V domains shown, Mouse antibody purified from hybridoma culture; also called Clone M8) VH: QVQLQQSGPELVKPGALVKISCKASGYTFTSYDINWVKQRPGQGLEWIGWIYPGDGSTKYNEKFKGKATLTADKSSSTAYMQLSSLTSEDSAVYFCARSSFVVWGAGTTVTVSS VL: DIQMTQSSSYLSVSLGGRVTITCKASDPINNWLAWYQQKPGNAPRLLISGATSLETGVPSRISGSGSGKDYSLSITSLQTEDIATYYCHQYWSIPYTFGGGTKLEIK | < 10 nM |  |  | binding result [3]: no binding; binding result [4]: binds
5 | M9 mouse monoclonal antibody (antibody, V domains shown, Mouse antibody purified from hybridoma culture; also called Clone M9) VH: DVQLVESGGGLVQPGGSRKLSCAASGFTFSSFGMHWVRQAPEKGLEWVAYIRSDSSTIYYADTVKGRFTISRDNPKNTLFLQMTSLRSEDTAMYYCARSGYYGSFSLTYWGQGTLVTVSA VL: EIVLTQSPTTMAASPGEKITITCSASSSVSSNYLHWYQQKPGFSPKLLIYRTSNLPSGVPARFFGSGSGTSYSLTIGTMEAEDVATYYCQQGSGMLTFGAGTKLELK | < 10 nM |  |  | binding result [3]: no binding; binding result [4]: binds
6 | murine-canine chimeric M3 antibody (canine IgG-B, canine kappa) (antibody, V domains shown, also called chimeric canine IgG-B (M3)) VH: QVQLKESGPGLVAPSQSLSITCTVSGFSLSRYSVHWVRQPPGKGLEWLGMIWGGGSTDYNSVFKSRLSISKDNSKSQVFLKMNSLQTDDTAMYYCARTYRGYALDYWGQGTSVTVSS VL: DIQMTQTTSSLSASLGDRVTISCRASQDISNYLNWYQQKPDGTVKLLIYYTSRLQSGVPSRFSGSGSGTDYCLTISNLEQEDIATYFCQQANTLPLTFGSGTKLELK |  | < 10 nM |  | 
7 | murine-canine chimeric M5 antibody (canine IgG-B, canine kappa) (antibody, V domains shown, also called chimeric canine IgG-B (M5)) VH: QVQLKESGPGLVAPSQSLSITCTVSGFSLSRYSVHWVRQPPGKGLEWLGMIWGGGSTDYNSVFKSRLSISKDNSKSQVFLKMNSLQTDDTAMYYCARTYRGYALDYWGQGTSVTVSS VL: DIQMTQTTSSLSASLGDRVTISCRASQDISNYLNWYQQKPDGTVKLLIYYTSRLQSGVPSRFSGSGSGTDYCLTISNLEQEDIATYFCQQANTLPLTFGSGTKLELK |  | < 10 nM |  | 
8 | murine-canine chimeric M8 antibody (canine IgG-B, canine kappa) (antibody, V domains shown, also called chimeric canine IgG-B (M8)) VH: QVQLQQSGPELVKPGALVKISCKASGYTFTSYDINWVKQRPGQGLEWIGWIYPGDGSTKYNEKFKGKATLTADKSSSTAYMQLSSLTSEDSAVYFCARSSFVVWGAGTTVTVSS VL: DIQMTQSSSYLSVSLGGRVTITCKASDPINNWLAWYQQKPGNAPRLLISGATSLETGVPSRISGSGSGKDYSLSITSLQTEDIATYYCHQYWSIPYTFGGGTKLEIK |  | < 10 nM |  | 
9 | murine-canine chimeric M9 antibody (canine IgG-B, canine kappa) (antibody, V domains shown, also called chimeric canine IgG-B (M9)) VH: DVQLVESGGGLVQPGGSRKLSCAASGFTFSSFGMHWVRQAPEKGLEWVAYIRSDSSTIYYADTVKGRFTISRDNPKNTLFLQMTSLRSEDTAMYYCARSGYYGSFSLTYWGQGTLVTVSA VL: EIVLTQSPTTMAASPGEKITITCSASSSVSSNYLHWYQQKPGFSPKLLIYRTSNLPSGVPARFFGSGSGTSYSLTIGTMEAEDVATYYCQQGSGMLTFGAGTKLELK |  | < 10 nM |  | 
10 | caninized M3 antibody, variable HC v1 with variant canine IgG-B (C1q-, CD16-) and variable LC v1 with canine kappa (antibody, V domains shown, also called caninized M3 HC v1 / LC v1) VH: EVQLVESGGDLVKPAGSLRLSCTVSGFSLSRYSVHWVRQAPGKGLEWLGMIWGGGSTDYNSVVKGRFTISRDNAKNTVYLQMNSLRAEDTAMYYCARTYRGYALDYWGQGTLVTVSS VL: DIVMTQTPLSLSVSPGEPASISCRASQDISNYLNWYLQKAGQSPRLLIYYTSRLQSGVPDRFSGSGSGTDFTLRIGRVEAEDAGIYFCQQANTLPLTFGQGTRLEVRR |  |  | ≤ 1 nM | 
11 | caninized M3 antibody, variable HC v2 with variant canine IgG-B (C1q-, CD16-) and variable LC v1 with canine kappa (antibody, V domains shown, also called caninized M3 HC v2 / LC v1) VH: ELTLQESGPGLVKPSQTLSLTCTVSGFSLSRYSVHWIRQPRGRGLELLGMIWGGGSTDYNPAFQGRISITADTAKNQFSLQLSSMTTEDTAVYYCARTYRGYALDYWGQGTLVTVSS VL: DIVMTQTPLSLSVSPGEPASISCRASQDISNYLNWYLQKAGQSPRLLIYYTSRLQSGVPDRFSGSGSGTDFTLRIGRVEAEDAGIYFCQQANTLPLTFGQGTRLEVRR |  |  | ≤ 1 nM | 
12 | caninized M9 antibody, variable HC v1 with variant canine IgG-B (C1q-, CD16-) and variable LC v1 with canine kappa (antibody, V domains shown, also called caninized M9 HC v1 / LC v1) VH: EVQLVESGGDLVKPGGSLRLSCAASGFTFSSFGMHWVRQAPGKGLEWVAYIRSDSSTIYYADAVKGRFTISRDNAKNTLYLQMNSLRAEDTAMYYCARSGYYGSFSLTYWGQGTLVTVSS VL: DIMLTQTPLSLSVSPGEPASISCSASSSVSSNYLHWYLQKAGQSPRLLIYRTSNLPSGVPDRFSGSGSGTDFTLRIGRVEAEDAGIYYCQQGSGMLTFGQGTRLEVRR |  |  | ≤ 1 nM | 
13 | caninized M9 antibody, variable HC v2 with variant canine IgG-B (C1q-, CD16-) and variable LC v1 with canine kappa (antibody, V domains shown, also called caninized M9 HC v2 / LC v1) VH: EVQLVESGGDLVKPGGSLRLSCVASGFTFSSFGMHWVRQAPGKGLQWVAYIRSDSSTIYYADAVKGRFTISRDNAKNTLYLQMNSLRAEDTAMYYCARSGYYGSFSLTYWGQGTLVTVSS VL: DIMLTQTPLSLSVSPGEPASISCSASSSVSSNYLHWYLQKAGQSPRLLIYRTSNLPSGVPDRFSGSGSGTDFTLRIGRVEAEDAGIYYCQQGSGMLTFGQGTRLEVRR |  |  | ≤ 1 nM | 
